The data set “native gel or EMSA” concerns the molecule itself. Briefly: native gel or EMSA. (In general: A gel shift assay detects complexes by their altered migration in electrophoresis.)
The data set “SEC” concerns the molecule itself. Briefly: SEC.
The data set “native MS” deals with the molecule itself. Nature of the data set: native MS.

B1: 3×Ala-MxEnc (natural protein, Myxococcus xanthus)
chain: MPDFLGHAENPLREEEWARLNETVIQVARRSLVGRRILDIYGPLGAGVQTVPYDEFQGVSPGAVDIVGEQETAMVFTDARKFKTIPIIYKDFLLHWRDIEAARTHNMPLDVSAAAGAAALCAQQEDELIFYGDARLGYEGLMTANGRLTVPLGDWTSPGGGFQAIVEATRKLNEQGHFGPYAVVLSPRLYSQLHRIYEAAAVLEIETIRQLASDGVYQSNRLRGESGVVVSTGRENMDLAVSMDMVAAYLGASRMNHPFRVLEALLLRIKHPDAICTLEGAGATERR
Turning to B1, in the data set “native gel or EMSA”, the binding result is recorded as “binds”.

B2: 3×Asp-MxEnc (natural protein, Myxococcus xanthus)
chain: MPDFLGHAENPLREEEWARLNETVIQVARRSLVGRRILDIYGPLGAGVQTVPYDEFQGVSPGAVDIVGEQETAMVFTDARKFKTIPIIYKDFLLHWRDIEAARTHNMPLDVSAAAGAAALCAQQEDELIFYGDARLGYEGLMTANGRLTVPLGDWTSPGGGFQAIVEATRKLNEQGHFGPYAVVLSPRLYSQLHRIYEDDDVLEIETIRQLASDGVYQSNRLRGESGVVVSTGRENMDLAVSMDMVAAYLGASRMNHPFRVLEALLLRIKHPDAICTLEGAGATERR
Regarding B2, the binding result in the data set “SEC” is given as “binds”.

B3: 3×His-MxEnc (K199H/T200H/G201H triple point mutant of the M. xanthus encapsulin) (natural protein, Myxococcus xanthus)
chain: MPDFLGHAENPLREEEWARLNETVIQVARRSLVGRRILDIYGPLGAGVQTVPYDEFQGVSPGAVDIVGEQETAMVFTDARKFKTIPIIYKDFLLHWRDIEAARTHNMPLDVSAAAGAAALCAQQEDELIFYGDARLGYEGLMTANGRLTVPLGDWTSPGGGFQAIVEATRKLNEQGHFGPYAVVLSPRLYSQLHRIYEHHHVLEIETIRQLASDGVYQSNRLRGESGVVVSTGRENMDLAVSMDMVAAYLGASRMNHPFRVLEALLLRIKHPDAICTLEGAGATERR
As to B3, the “stoichiometry N” value in the data set “native MS” amounted to 60.

As usually defined, the stoichiometry N is the number of molecules, sites or subunits per partner or assembly.
